Experiments:
[1] = molecular target: C-terminal domain of yeast S. cerevisiae mitochondrial oxidase assembly protein 1 (Oxa1-CTD, W320-K402) (S. cerevisiae) (UniProt P39952); test: MST; Oxa1-CTD (20 µM, labelled with red fluorescent dye) kept constant; E. coli 70S or BSA titrated 1.21-20,000 nM; 20 mM HEPES pH 7.2, 75 mM NaCl, 20 mM MgCl2; three repeats
[2] = molecular target: the molecule itself; test: SEC; Superdex 75 increase 10/300 GL in NMR buffer (20 mM HEPES pH 7.2, 75 mM NaCl, 20 mM MgCl2, 5 mM β-mercaptoethanol); oligomeric state inferred from elution volumes against standards of the column's manual

Kd [1] | Molecule | stoichiometry N [2]
450 nM | E. coli 70S ribosome (complex) | –
– | C-terminal domain of yeast S. cerevisiae mitochondrial oxidase assembly protein 1 (Oxa1-CTD, W320-K402) (domain or fragment, UniProt P39952 320-402, looked up, red fluorescent dye (Monolith NT protein labeling kit) in the MST assay; 15N-labelled in the NMR titration, Oxa1, yeast S. cerevisiae, C-terminal domain, residues W320 to K402 (pI = 10.5); cloned into pET-14b with an N-terminal 6x His-tag and a thrombin cleavage site; also called C-terminus of Oxa1; pET14b-Oxa1-CTD (W320-K402)) WVRSKLKITEVAKPRTPIAGASPTENMGIFQSLKHNIQKARDQAERRQLMQDNEKKLQESFKEKRQNSKIKIVHKSNFINNKK | 2
